Measured values taken from article doi:10.1101/2025.01.13.632879.

How the values were obtained:
Assay in all cases: SEC
[1] = target: Clostridioides difficile GerS N74L, His6-tagged (Clostridioides difficile)
[2] = target: Clostridioides difficile GerS, His6-tagged (wild type) (Clostridioides difficile)
[3] = target: GerS ortholog from Paraclostridium sordellii, His6-tagged (Paraclostridium sordellii)
[4] = target: Clostridioides difficile GerS K71R, His6-tagged (Clostridioides difficile)
[5] = target: GerS ortholog from Paraclostridium bifermentans, His6-tagged (Paraclostridium bifermentans)
[6] = target: Clostridioides difficile GerS T72P, His6-tagged (Clostridioides difficile)

Clostridioides difficile GerS N74L, His6-tagged (natural protein)
stoichiometry N [1]: 2

Clostridioides difficile GerS, His6-tagged (wild type) (natural protein)
stoichiometry N [2]: 2

GerS ortholog from Paraclostridium sordellii, His6-tagged (natural protein)
stoichiometry N [3]: 2

Clostridioides difficile GerS K71R, His6-tagged (natural protein)
stoichiometry N [4]: 2

GerS ortholog from Paraclostridium bifermentans, His6-tagged (natural protein)
stoichiometry N [5]: 2

Clostridioides difficile GerS T72P, His6-tagged (natural protein)
stoichiometry N [6]: 2
